What was measured:
[1] = target: BCL6-3C BTB domain (human BCL6 residues 5-129 with C8Q/C67R/C84N) (human) (UniProt P41182); assay: SPR, biotinylated peptide on streptavidin chip, BCL6-3C BTB domain injected
[2] = target: GAL4-BTB^BCL6 (GAL4 DNA binding domain fused to the wild-type BCL6 BTB domain) (human); assay: cell-based or functional assay

Sequence of N-CoR^1351-1383 peptide, biotinylated, immobilised for SPR (Q60974 1351-1383): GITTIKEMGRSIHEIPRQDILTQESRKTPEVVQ

fold stronger affinity relative to SMRT^1414-1441 [1] [fold]	enhancement of repression in reporter assays [2] [fold]	Substance
2.5	–	N-CoR^1351-1383 peptide, biotinylated, immobilised for SPR
–	2 to 3	full-length BCoR (from UniProt Q6W2J9 1-1721)
